According to patent US10251952B2, “Humanized anti-tau(pS422) antibody brain shuttles and use thereof” (Hoffmann-La Roche Inc., priority 2014, dated 2019):
Square brackets hold non-standard residues; d marks the D form. NMeR = CN[C@@H](CCCNC(=N)N)C(=O)O; Pqa = not defined here

Key:
Assay in all cases: effect on the Y2Receptor family
NPY4R = NPY4R (Homo sapiens, UniProt P50391)
NPY1R = biological target: T1, NPY1R (Homo sapiens, UniProt P25929)
T1 sequence (P25929 1-384): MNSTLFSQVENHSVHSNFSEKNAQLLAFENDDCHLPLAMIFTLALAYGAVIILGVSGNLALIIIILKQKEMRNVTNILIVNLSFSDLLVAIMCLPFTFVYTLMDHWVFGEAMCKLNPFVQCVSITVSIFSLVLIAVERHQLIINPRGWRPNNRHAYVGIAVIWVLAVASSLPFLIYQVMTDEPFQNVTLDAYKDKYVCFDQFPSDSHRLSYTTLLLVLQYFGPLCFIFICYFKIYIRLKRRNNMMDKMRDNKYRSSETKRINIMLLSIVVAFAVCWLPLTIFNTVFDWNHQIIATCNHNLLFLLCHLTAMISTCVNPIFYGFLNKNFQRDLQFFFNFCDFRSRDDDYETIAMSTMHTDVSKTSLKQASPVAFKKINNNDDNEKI

NPY2R = biological target: T2, NPY2R (Homo sapiens, UniProt P49146)
T2 sequence (P49146 1-381): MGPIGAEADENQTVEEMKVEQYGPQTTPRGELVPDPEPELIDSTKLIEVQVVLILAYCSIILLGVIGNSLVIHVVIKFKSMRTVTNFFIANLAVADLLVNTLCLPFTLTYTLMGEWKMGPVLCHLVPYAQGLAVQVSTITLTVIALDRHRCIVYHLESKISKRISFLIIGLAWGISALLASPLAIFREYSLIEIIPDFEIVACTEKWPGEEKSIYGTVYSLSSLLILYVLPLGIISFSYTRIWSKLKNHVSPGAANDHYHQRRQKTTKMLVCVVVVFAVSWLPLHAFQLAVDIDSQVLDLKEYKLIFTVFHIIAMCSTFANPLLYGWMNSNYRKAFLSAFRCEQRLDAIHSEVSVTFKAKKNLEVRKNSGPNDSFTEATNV

NPY5R = biological target: T3, NPY5R (Homo sapiens, UniProt Q15761)
T3 sequence (Q15761 1-445): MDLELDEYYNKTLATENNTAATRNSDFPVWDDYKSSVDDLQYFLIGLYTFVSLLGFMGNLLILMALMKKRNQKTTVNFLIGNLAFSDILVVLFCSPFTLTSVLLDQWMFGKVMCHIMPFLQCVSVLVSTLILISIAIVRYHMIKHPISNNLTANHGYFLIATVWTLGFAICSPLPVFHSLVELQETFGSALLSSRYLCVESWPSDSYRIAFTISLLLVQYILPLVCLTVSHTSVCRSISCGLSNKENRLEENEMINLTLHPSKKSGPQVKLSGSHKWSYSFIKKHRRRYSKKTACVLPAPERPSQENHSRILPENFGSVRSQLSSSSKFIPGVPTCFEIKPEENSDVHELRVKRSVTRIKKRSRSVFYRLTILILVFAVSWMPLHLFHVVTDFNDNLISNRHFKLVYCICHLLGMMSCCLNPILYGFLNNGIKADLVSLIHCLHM

Chain of NPY4R (P50391 whole entry, species assumed): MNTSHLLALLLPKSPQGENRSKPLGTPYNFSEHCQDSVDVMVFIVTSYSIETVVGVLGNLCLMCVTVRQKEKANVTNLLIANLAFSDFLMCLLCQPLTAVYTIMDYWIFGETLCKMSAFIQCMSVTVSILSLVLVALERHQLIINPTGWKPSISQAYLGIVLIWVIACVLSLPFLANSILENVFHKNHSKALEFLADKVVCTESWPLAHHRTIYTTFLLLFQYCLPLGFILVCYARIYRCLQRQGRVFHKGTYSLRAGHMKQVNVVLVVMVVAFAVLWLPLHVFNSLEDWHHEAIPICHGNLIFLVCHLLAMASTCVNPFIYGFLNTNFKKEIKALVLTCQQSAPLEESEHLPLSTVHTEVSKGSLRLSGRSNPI

NPY4R (NPY4R): inactive | NPY1R (NPY1R): inactive | NPY2R (NPY2R): 1.0 nM | NPY5R (NPY5R): inactive
Substance: Ac-Ile-Lys-Pqa-Arg-His-Tyr-Leu-Asn-Trp-Val-Thr-Arg-Gln-(NMe)-Arg-Try-NH2 * 4 HOAc (Ac-IK[Pqa]RHYLNWVTRQ[NMeR]Y-NH2; reading uncertain; also: salt: 4 HOAc, printed as Ac-Ile-Lys-Pqa-Arg-His-Tyr-Leu-Asn-Trp-Val-Thr-Arg-Gln-(NMe)-Arg-Try-NH2 * 4 HOAc) [reference compound]
